# Patent US20150148405A1, “Expression Construct for a Lin28-Resistant Let-7 Precursor MicroRNA” (THE JOHNS HOPKINS UNIVERSITY, priority 2012, published 2015)
# B1: BDNF: brain-derived neurotrophic factor, a neurotrophin used to stimulate hippocampal neurons (protein, UniProt P23560 19-247, looked up)
# Neurotrophic factor BDNF …: APMKEANIRGQGGLAYPGVRTHGTLESVNGPKAGSRGLTSLADTFEHVIEELLDEDQKVRPNEENNKDADLYTSRVMLSSQVPLEPPLLFLLEEYKNYLDAANMSMRVRRHSDPARRGELSVCDSISEWVTAADKKTAVDMSGGTVTVLEKVPVSKGQLKQYFYETKCNPMGYTKEGCRGIDKRHWNSQCRTTQSYVRALTMDSKKRIGWRFIRIDTSCVCTLTIKRGR
# How the values were obtained:
# Assay type in all cases: cell-based, mouse
# Let-7a = assay: Northern blot of pre- and mature Let-7a; details: BDNF-treated (30 min) neurons
# Experimental: Northern blots were carried out as described (Hwang et al., 2007), using the following LNA probes from Exiqon: Let-7a (5′ […] 3′; SEQ ID NO: 1), pre-Let-7a (5′ GTGGGTGTGACCCTA 3′; SEQ ID NO: 2), miR-17 (5′ […] 3′; SEQ ID NO: 3) and quantified by phosphoimaging.
# [1] = system: Let-7 family, miR-107, miR-143; assay: Individual TaqMan RT-qPCR of mature miRNA levels; details: BDNF vs mock, normalized to 18s rRNA
# Experimental: For individual microRNA abundance assays (Applied Biosystems), 100 ng of total isolated RNA was prepared for reverse transcription with stem-looped primers specific for individual mature miRNAs in a final volume of 15 μL according to manufacturer's protocol; 4° C. for 5 min, 16° C. for 30 min, 42° C. for 30 min, 85° C. for 5 min. and subjected to TaqMan MicroRNA Assays (Applied Biosystems) for Let-7a (assay ID: 000377), Let-7b (002619), Let-7e (002406), Let-7f1 (000382), miR-107 (000443) and miR-143 ([…]). RT-qPCR was performed using a Stratagene Mx3000P machine and software with quantities derived by standard-curve quantitation method. The abundance of non-coding 18s rRNA in each sample was used as an internal control to normalize all miRNA species.
# phospho-ERK = assay: Immunoblotting for phospho-ERK; details: BDNF-stimulated neurons, Actinomycin-D
# Experimental: (§1) Primary cultures of mouse hippocampal neurons (DIV 14 15) were incubated in serum-reduced medium (0.5% B27 supplement) for 2 hours, followed by […] Actinomycin-D for 10-20 min. Bath application of BDNF (100 ng/mL) was for designated periods (5 min-2 hours). The cultures were washed 3 times and harvested on ice with lysis buffer (50 mM Hepes, 150 mM NaCl, 10% Glycerol, 1 mM EDTA, 1% Triton-X-100, 0.2% SDS) plus freshly added protease inhibitor cocktail (Roche) and PMSF. Protein concentration was determined by Bradford Assay. If required, lysates were treated with Lambda Protein Phosphatase according to manufacturer's instructions (New England Biolabs […]). Equal amounts of lysate protein were resolved on SDS-PAGE gels, and electrotransferred to PVDF membrane. […]
# Lin28a = assay: Immunoblotting for Lin28a; details: mature neurons, by 5 min following BDNF exposure
# Experimental: as §1
# [2] = system: Let-7 miRNA binding sites; assay: Let-7 luciferase reporter assay; details: BDNF 4 hr, transcription blockade; control reporters unchanged
# Source text: Let-7 luciferase reporters (gift of G. Hannon) harbor a wildtype or a mutant Let-7 miRNA binding site. The Let-7 miRNA binding sites are derived from a short 3′UTR segment of C. elegans Lin41 mRNA containing two adjacent proven Let-7 miRNA biding sites and are cloned into 3′UTR of firefly luciferase in a pcDNA backbone. Mutations in seed regions of both Let-7 binding sites were made for a negative control reporter, which was documented not regulated by endogenous Let-7 miRNAs. Co-transfection of the pCSK-lacZ vector, which constitutively expresses β-galactosidase and is not regulated by shRNA, served to normalize transfection efficiency and extract recovery for each sample in all reporter assays. The DNA amounts used for each well (24 well plate) were 15 ng of any luciferase reporter, 85 ng of β-gal (CSK-LacZ), and/or 75-300 ng of CXCR4 shRNA. Each reporter experiment included extracts from cells transfected with pcDNA3.1 alone as a reference control. […] Cell lysates were collected in 1×lysis buffer (reporter lysis buffer, Promega), and luciferase (Promega) and chemiluminescent β-gal (Roche) reporter assays carried out according to manufacturer instructions using a plate-reading luminometer (Perkin Elmer). […] When required, fold change was calculated by dividing normalized stimulated samples by normalized unstimulated samples.
# Dicer = assay: Immunoblotting for Dicer; details: BDNF-stimulated neurons, Actinomycin-D
# Experimental: as §1
molecule,measurement,setting,value
B1,pre-Let7 and mature Let-7 miRNA levels,Let-7a,significant decreases
same,"abundance of Let-7 family members, miR-107 and miR-143",[1],significant and reproducible BDNF-induced decreases in abundance
same,phospho-ERK induction,phospho-ERK,rapidly induced phospho-ERK
same,Lin28a protein,Lin28a,robust and rapid transcription-independent increase in Lin28a
same,luciferase reporter containing Let-7 binding sites,[2],significantly induced
same,Dicer levels,Dicer,marked transcription-independent increase in Dicer levels
same,time of peak Dicer levels after stimulation,Dicer,5 to 20 min
